Broadly, the Kd is a measure of binding affinity in units of concentration. The term koff denotes the first-order rate constant of dissociation. Low values mean a long-lived complex, high ones a short-lived complex. Usually stoichiometry N stands for a count of units in the complex or per binding partner.

From article PMC6237974 come the findings set out here.

Series [1] relates to VgrR-P (phosphorylated by VgrS + ATP) (Xanthomonas campestris pv. campestris 8004). Put plainly: MST. The conditions noted are these: MST: 50 mM Tris-HCl pH 7.4, 150 mM NaCl, 10 mM MgCl2, 0.05% Tween-20; EMSA: 10 mM Tris-HCl pH 7.5, 50 mM KCl, 1 mM DTT, 50 ng poly(dI:dC), 10 mM EDTA, 28 C.
Series [2] addresses cytoplasmic region of VgrS that contained the HAMP and transmitter regions (Xanthomonas campestris pv. campestris 8004). Put plainly: not stated; Supplementary Fig. 4b and 4c; Prc with the cytoplasmic region of VgrS.
The next series concerns the target VgrS sensor. Put plainly: SPR. A general note: SPR reads the build-up and loss of mass on a sensor chip optically.
Series [3] addresses VgrS sensor (Xanthomonas campestris pv. campestris 8004). Put plainly: SPR; Biacore 3000, VgrS sensor trapped on a CM5 chip, Prc forms injected at 30 μl/min, 25 °C, PBST pH 7.4.
The target of series [4] is Prc^S475A monomer (Xanthomonas campestris pv. campestris 8004). Put plainly: SEC + AUC; Prc^S475A separated by gel filtration; sedimentation velocity of each peak at 20 °C, sodium phosphate buffer pH 8.0 plus 150 mM NaCl. In general terms: Size exclusion chromatography separates by hydrodynamic size, large species first.
Series [5] concerns the target VgrS sensor (Xanthomonas campestris pv. campestris 8004). As to the kind of experiment: MST; VgrS sensor labelled with NT-647, titrated with Prc forms in NTA buffer (300 mM NaCl, 50 mM sodium phosphate, pH 7.0) with 0.05% Tween; Monolith NT.115; three replicates.

With PXC_3300 promoter probe, in series [1], the Kd turned out to be 30.7 µM.

For “Prc (form not told, binding to the cytoplasmic region of VgrS) (enzyme)”, the Kd in series [2] was 191 µM.

Consider Prc^S475A monomer, for which, in the series with VgrS sensor (enzyme), the Ka was 29500 M⁻¹ and the koff is 0.00842 s⁻¹.

As for Prc^S475A monomer (enzyme), the Kd in series [3] worked out at 33.9 µM; in series [5], 0.65 µM. Also, the stoichiometry N in series [4] stood at 3.

The substance PrcΔPDZ^S475A (enzyme) came in with a Kd in series [5] of 1.95 µM.

For “recombinant Prc^S475A containing peptidase and DUF regions”, the Ka with VgrS sensor (domain or fragment) came out at 44700 M⁻¹.

For the substance “recombinant Prc^S475A containing peptidase and DUF regions (domain or fragment)”, the Kd came to 22.4 µM in series [3] and 0.27 µM in series [5].
